Measurements reported in IntAct's records for PubMed 22982544.

B1: Autophagy-related protein (Plasmodium falciparum (isolate 3D7)), Q8IJK2 (parent)
chain: MPSLKDEVSFENRVAETHKIRSKYPNRIPVVCERANRSNLPIIEKKKFLVPMNMLVGEFKFILHQHINQSAYGSNMKLFRERTIYLFVNNIVPKTGLLMQDLYEMYKDEDGYLYMEYSCESCLG
B2: - (Plasmodium falciparum (isolate 3D7)), C0H519 (parent)
chain: MSDQINVKHKIGDTCRKLYSYFKTVNNTSTFIQNGTLTPSEFVDSGDFLVYKFKTWEWQEADKDRVVPYLPENKQFLITKNVPCKQRIKDLNNIVHDLKIVDNDWLLPSYEEDNNPTDIYEYLPNSEYTINDKNIYNYEEEEEDDNCDEAIDINNFYMENNLIKEHDPASINSTSCYSKNMLHDNLMKIRTYDVSITYDKYYQTPRIWLFGYNENGDPLKSEEIFEDILSDYSYKTVTYDPHPCTGVMTASIHPCKHAEAILNVVNNWISEEKEPRHDLYLLFLLKFISGVIPTIEYDFTTDIEIPRDSNAGL

Variants of: B1
Conditions: with c0h519, C0H519
MPSLKDEVSFENRVAETHKIRSKYPNEIPVVCERANRSNLPIIEKKKFLVPMNMLVGEFKFILHQHINQSAYGSNMKLFRERTIYLFVNNIVPKTGLLMQDLYEMYKDEDGYLYMEYSCESCLG was tested, and the “effect of a mutation on the interaction” value was “disrupting interaction”.
For MPSLKDEVSFENRVAETHKIRSKYPNRIPVVCERANRSNLPIIEKKKFAVPMNMLVGEFKFILHQHINQSAYGSNMKLFRERTIYLFVNNIVPKTGLLMQDLYEMYKDEDGYLYMEYSCESCLG, the “effect of a mutation on the interaction” value was “decreasing interaction”.
MPSLKDEVSFENRVAETHKIRSKYPNRIPVVCERANRSNLPIIASAKFLVPMNMLVGEFKFILHQHINQSAYGSNMKLFRERTIYLFVNNIVPKTGLLMQDLYEMYKDEDGYLYMEYSCESCLG was tested, and the “effect of a mutation on the interaction” value was “decreasing interaction”.
For MPSLKDEVSFENRVAETHKIRSKYPNRIPVVCERANRSNLPIIEKKEFLVPMNMLVGEFKFILHQHINQSAYGSNMKLFRERTIYLFVNNIVPKTGLLMQDLYEMYKDEDGYLYMEYSCESCLG, the “effect of a mutation on the interaction” value was “disrupting interaction”.
For MPSLKDEVSFENRVAETHEIRSKYPNRIPVVCERANRSNLPIIEKKEFLVPMNMLVGEFKFILHQHINQSAYGSNMKLFRERTIYLFVNNIVPKTGLLMQDLYEMYKDEDGYLYMEYSCESCLG, the “effect of a mutation on the interaction” value was “disrupting interaction”.

Variants of: B2
Conditions: with q8ijk2, Q8IJK2
For MSDQINVKHKIGDTCRKLYSYFKTVNNTSTFIQNGTLTPSEFVDSGDFLVYKFKTWEWQEADKDRVVPYLPENKQFLITKNVPCKQRIKDLNNIVHDLKIVDNDALLPSYEEDNNPTDIYEYLPNSEYTINDKNIYNYEEEEEDDNCDEAIDINNFYMENNLIKEHDPASINSTSCYSKNMLHDNLMKIRTYDVSITYDKYYQTPRIWLFGYNENGDPLKSEEIFEDILSDYSYKTVTYDPHPCTGVMTASIHPCKHAEAILNVVNNWISEEKEPRHDLYLLFLLKFISGVIPTIEYDFTTDIEIPRDSNAGL [W105A], the “effect of a mutation on the interaction” value was “decreasing interaction”.
